In patent publication US20200165308A1 (published 2020):

Target: Netrin-1 (NET1) from Mus musculus lacking the C-terminal domain (NP_032770, aa: 24-457) (Mus musculus, UniProt O09118 24-457)
Test: solid-phase binding assay

Kd: 7.58 nM
B1: full-length ectodomain of NEO1 (AAH54540, aa: 41-1107) (receptor)
chain: GAAATKSGSPPQSAGASVRTFTPFYFLVEPVDTLSVRGSSVILNCSAYSEPSPNIEWKKDGTFLNLESDDRRQLLPDGSLFISNVVHSKHNKPDEGFYQCVATVDNLGTIVSRTAKLTVAGLPRFTSQPEPSSVYVGNSAILNCEVNADLVPFVRWEQNRQPLLLDDRIVKLPSGTLVISNATEGDGGLYRCIVESGGPPKFSDEAELKVLQDPEEIVDLVFLMRPSSMMKVTGQSAVLPCVVSGLPAPVVRWMKNEEVLDTESSGRLVLLAGGCLEISDVTEDDAGTYFCIADNGNKTVEAQAELTVQVPPGFLKQPANIYAHESMDIVFECEVTGKPTPTVKWVKNGDVVIPSDYFKIVKEHNLQVLGLVKSDEGFYQCIAENDVGNAQAGAQLIILEHDVAIPTLPPTSLTSATTDHLAPATTGPLPSAPRDVVASLVSTRFIKLTWRTPASDPHGDNLTYSVFYTKEGVARERVENTSQPGEMQVTIQNLMPATVYIFKVMAQNKHGSGESSAPLRVETQPEVQLPGPAPNIRAYATSPTSITVTWETPLSGNGEIQNYKLYYMEKGTDKEQDIDVSSHSYTINGLKKYTEYSFRVVAYNKHGPGVSTQDVAVRTLSDVPSAAPQNLSLEVRNSKSIVIHWQPPSSTTQNGQITGYKIRYRKASRKSDVTETLVTGTQLSQLIEGLDRGTEYNFRVAALTVNGTGPATDWLSAETFESDLDETRVPEVPSSLHVRPLVTSIVVSWTPPENQNIVVRGYAIGYGIGSPHAQTIKVDYKQRYYTIENLDPSSHYVITLKAFNNVGEGIPLYESAVTRPHTVPDPTPMMPPVGVQASILSHDTIRITWADNSLPKHQKITDSRYYTVRWKTNIPANTKYKNANATTLSYLVTGLKPNTLYEFSVMVTKGRRSSTWSMTAHGATFELVPTSPPKDVTVVSKEGKPRTIIVNWQPPSEANGKITGYIIYYSTDVNAEIHDWVIEPVVGNRLTHQIQELTLDTPYYFKIQARNSKGMGPMSEAVQFRTPKALGSAGKGSRLPDLGSDYKPPMSGSNSPHGSPTSPLDSN
